Source: the Human Domainome abundance scans (Beltran et al. 2025)
± gives the uncertainty stated by the source.

B1: POU domain, class 3, transcription factor 4, residues 280 to 335; numbered along this chain, P49335 (parent)
chain: KKRTSIEVSVKGVLETHFLKCPKPAAQEISSLADSLQLEKEVVRVWFCNRRQKEKR

Variants of: B1
Assay: abundance fitness (aPCA) (normalised: wild type 0, dead -1); higher = more abundant; growth selection in yeast, the domain comes from the species named
Conditions: Homo sapiens

Row | Variant | abundance fitness
1 | KKRTSIEVSVKGVLETHFLKCPKPAAQEISSLADSLQLEPEVVRVWFCNRRQKEKR [K40P] | 0.348 ± 0.18
2 | KKRTSIEVSVKGVLETHFLKCPKPAAQEIDSLADSLQLEKEVVRVWFCNRRQKEKR [S30D] | 0.08 ± 0.14
3 | KKRTSIEVSVKGVLETHFLKCPKPAAQEITSLADSLQLEKEVVRVWFCNRRQKEKR [S30T] | -0.118 ± 0.17
4 | KKRTSIEVSVKGVLETHFLKCPKPAAQEISSLADSLQYEKEVVRVWFCNRRQKEKR [L38Y] | -0.483 ± 0.33
5 | KKRTSIEVSVKGVLEDHFLKCPKPAAQEISSLADSLQLEKEVVRVWFCNRRQKEKR [T16D] | 0.157 ± 0.26
6 | KKRTSIEVSVKGVLETHFLKCPKPAAQEISCLADSLQLEKEVVRVWFCNRRQKEKR [S31C] | -0.414 ± 0.32
7 | KKRTSIEVSVKGVLETHFLSCPKPAAQEISSLADSLQLEKEVVRVWFCNRRQKEKR [K20S] | -0.479 ± 0.15
8 | KKRTSIEVSVKGVLETHFLGCPKPAAQEISSLADSLQLEKEVVRVWFCNRRQKEKR [K20G] | -0.69 ± 0.12
9 | KKRTSIEVSVKGVLGTHFLKCPKPAAQEISSLADSLQLEKEVVRVWFCNRRQKEKR [E15G] | -0.881 ± 0.17
10 | KKRTSIEVSVKGVLETHFLKCPKPAAQEISSLADSLQLEKEVVRVWFCNIRQKEKR [R50I] | -0.93 ± 0.28
11 | KKRTSIEVSVKGVLETHFLKCPCPAAQEISSLADSLQLEKEVVRVWFCNRRQKEKR [K23C] | 0.218 ± 0.16
12 | KKRTSIEVSVKGVLETHFLKCPKPAAQEISSLADSLQLEKEVVRVWFCNRRQKEKY [R56Y] | -0.144 ± 0.43
13 | KKRTSIEVSVKGVLETHFLKCPKPAAQEISSLADSLQLEKYVVRVWFCNRRQKEKR [E41Y] | -0.819 ± 0.4
14 | KKRTSIEVSVKGVLETHFLKCPKPAAQEISSLADSLQLEKCVVRVWFCNRRQKEKR [E41C] | -0.84 ± 0.23
15 | KKRTSIEVSVKGVLETHFLKCPKPAAQEISSLADSLQLEKVVVRVWFCNRRQKEKR [E41V] | -0.817 ± 0.2
16 | KKRTSIEVSVKGVLETRFLKCPKPAAQEISSLADSLQLEKEVVRVWFCNRRQKEKR [H17R] | -0.845 ± 0.14
17 | KKRTSIEVSVKGVLETHFLKCPKPAAQEISSLADSLQLEKEVVRVWFCNRTQKEKR [R51T] | -0.848 ± 0.33
18 | KKRTSIEVSVKGVLETHFLKCPKPAAQEISSLADRLQLEKEVVRVWFCNRRQKEKR [S35R] | 0.152 ± 0.11
19 | KKRTSIEVSVKGVLETHFLKCPKPAAQEISSLADVLQLEKEVVRVWFCNRRQKEKR [S35V] | -0.456 ± 0.13
20 | KKRTSIEVSVKGVLETHFLKCPKPAAQEISSLADDLQLEKEVVRVWFCNRRQKEKR [S35D] | 0.031 ± 0.25
21 | KKRTSIEVSVKGVYETHFLKCPKPAAQEISSLADSLQLEKEVVRVWFCNRRQKEKR [L14Y] | -1.08 ± 0.27
22 | KKRTSIEVSVKGVMETHFLKCPKPAAQEISSLADSLQLEKEVVRVWFCNRRQKEKR [L14M] | -0.623 ± 0.17
23 | KKRTSIEVSVKGVAETHFLKCPKPAAQEISSLADSLQLEKEVVRVWFCNRRQKEKR [L14A] | -0.955 ± 0.15
24 | KKRTSIEVSVKGVLETHFLKCPKWAAQEISSLADSLQLEKEVVRVWFCNRRQKEKR [P24W] | -0.514 ± 0.27

Row | Variant | abundance fitness
25 | KKRTSIEESVKGVLETHFLKCPKPAAQEISSLADSLQLEKEVVRVWFCNRRQKEKR [V8E] | 0.623 ± 0.14
26 | KKRTSIERSVKGVLETHFLKCPKPAAQEISSLADSLQLEKEVVRVWFCNRRQKEKR [V8R] | 0.362 ± 0.12
27 | KKRTSIEHSVKGVLETHFLKCPKPAAQEISSLADSLQLEKEVVRVWFCNRRQKEKR [V8H] | 0.07 ± 0.28
28 | KKRTSIENSVKGVLETHFLKCPKPAAQEISSLADSLQLEKEVVRVWFCNRRQKEKR [V8N] | 1.06 ± 0.44
29 | KKRTSIEVSVKGVLETHFLKCPKPAAQEISSLADSLQLEKEVVRVWQCNRRQKEKR [F47Q] | -0.899 ± 0.31
30 | KKRTSIEVSVKGVLETHFLKCPKPAAQEISSRADSLQLEKEVVRVWFCNRRQKEKR [L32R] | -0.847 ± 0.2
31 | KKRTSIEVSVKGVLETHFLKCPKPAAQEISSMADSLQLEKEVVRVWFCNRRQKEKR [L32M] | -0.425 ± 0.27
32 | KKRASIEVSVKGVLETHFLKCPKPAAQEISSLADSLQLEKEVVRVWFCNRRQKEKR [T4A] | -0.145 ± 0.16
33 | KKRRSIEVSVKGVLETHFLKCPKPAAQEISSLADSLQLEKEVVRVWFCNRRQKEKR [T4R] | -0.419 ± 0.11
34 | KKRMSIEVSVKGVLETHFLKCPKPAAQEISSLADSLQLEKEVVRVWFCNRRQKEKR [T4M] | 0.108 ± 0.14
35 | KKRDSIEVSVKGVLETHFLKCPKPAAQEISSLADSLQLEKEVVRVWFCNRRQKEKR [T4D] | 0.34 ± 0.19
36 | KKRTSIEVSVKGVLETHFLKCPKPAAQEISSLADSLALEKEVVRVWFCNRRQKEKR [Q37A] | -0.437 ± 0.33
37 | KKRTSIEVSVKGVLETHFLKCPKPAAQEISSLADSLQLEKEVVRVKFCNRRQKEKR [W46K] | -0.673 ± 0.25
38 | KKFTSIEVSVKGVLETHFLKCPKPAAQEISSLADSLQLEKEVVRVWFCNRRQKEKR [R3F] | -0.226 ± 0.19
39 | KKRTSIEVSVQGVLETHFLKCPKPAAQEISSLADSLQLEKEVVRVWFCNRRQKEKR [K11Q] | 0.14 ± 0.43
40 | KKRTSIEVSVVGVLETHFLKCPKPAAQEISSLADSLQLEKEVVRVWFCNRRQKEKR [K11V] | -0.117 ± 0.22
41 | KSRTSIEVSVKGVLETHFLKCPKPAAQEISSLADSLQLEKEVVRVWFCNRRQKEKR [K2S] | -0.161 ± 0.14
42 | KQRTSIEVSVKGVLETHFLKCPKPAAQEISSLADSLQLEKEVVRVWFCNRRQKEKR [K2Q] | -0.637 ± 0.25
43 | KNRTSIEVSVKGVLETHFLKCPKPAAQEISSLADSLQLEKEVVRVWFCNRRQKEKR [K2N] | -0.058 ± 0.35
44 | KKRTSIEVSVKGVLETHFLKCPKPAAQEISSLADSLQLEKEVVRVWFCNRRQKEYR [K55Y] | -0.259 ± 0.24
45 | KKRTSIEVSVKGVLETHFLKCPKPAAQEISSLADSLQLEKEVVRVWFCNRRQKEWR [K55W] | -0.497 ± 0.24
46 | KKRTSIEVSVKGVLETHFLKCPKPAAQEISSLADSLQLEKEVVRVWFCNRRQKEER [K55E] | -0.259 ± 0.22
47 | KKRTSIEVSVKGVLETHFLKCPKPAAQEISSLADSLQLEKEVVRVWFCNRRQKEFR [K55F] | -0.194 ± 0.32
